Molecular target: C1q (Complement Technologies, Tyler, Tex.) (UniProt P02745)
Test: cell-based or functional assay

Sequence of UniProt P02745 (P02745 23-245 limits assumed, chain 1 of 3): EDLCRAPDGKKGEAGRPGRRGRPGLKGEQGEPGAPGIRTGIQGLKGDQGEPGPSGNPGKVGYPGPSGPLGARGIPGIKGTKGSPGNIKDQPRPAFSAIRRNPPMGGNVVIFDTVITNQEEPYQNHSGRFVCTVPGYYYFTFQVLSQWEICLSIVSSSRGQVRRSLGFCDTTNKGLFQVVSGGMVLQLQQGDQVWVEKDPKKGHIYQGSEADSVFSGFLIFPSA
Sequence of UniProt P02745 (P02746 28-253 limits assumed, chain 2 of 3, further chain): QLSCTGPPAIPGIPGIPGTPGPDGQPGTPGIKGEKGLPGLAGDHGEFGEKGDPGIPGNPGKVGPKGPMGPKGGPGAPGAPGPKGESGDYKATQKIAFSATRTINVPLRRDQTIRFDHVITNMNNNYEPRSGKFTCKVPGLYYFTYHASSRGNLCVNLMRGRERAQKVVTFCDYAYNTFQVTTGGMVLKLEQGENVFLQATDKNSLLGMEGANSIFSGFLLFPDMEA
Sequence of UniProt P02745 (P02747 29-245 limits assumed, chain 3 of 3, further chain): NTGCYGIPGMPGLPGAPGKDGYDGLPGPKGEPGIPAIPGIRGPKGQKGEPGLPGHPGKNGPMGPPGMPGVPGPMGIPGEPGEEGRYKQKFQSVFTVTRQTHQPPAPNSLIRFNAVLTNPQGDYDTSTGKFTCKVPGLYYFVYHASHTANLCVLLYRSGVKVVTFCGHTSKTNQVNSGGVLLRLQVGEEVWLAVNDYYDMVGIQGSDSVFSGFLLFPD

EC50 values [µg/mL] for C1q requirement for induction of CDC of Daudi cells [µg/mL]	efficacy of C1q utilization, fold improvement by carboxypeptidase B treatment [fold]	Substance
4.8		Anti-CD38 antibody (005), collected K2 isoform (two heavy-chain C-terminal lysines per antibody)
0.8	< 2	Anti-CD38 antibody (005), unfractionated preparation after carboxypeptidase B treatment
1.3		Anti-CD38 antibody (005), unfractionated preparation isolated from hybridoma supernatant
